Values of other authors, collected in patent US20250205311A1, “PHARMACEUTICAL COMPOSITIONS OF SEMAGLUTIDE AND THE METHODS OF USE THEREOF” (PENTIDE THERAPEUTICS LIMITED, priority 2022, published 2025).

Conditions: oral tablet

Substance: N6,26-{18-[N-(17-carboxyheptadecanoyl)-L-glutamyl]-1 0-oxo-3,6, 12, 15-tetraoxa-9, 18-diazaoctadecanoyl}-[8-(2-amino-2-propanoic acid), 34-L-arginine] human glucagon-like peptide 1 (7-37) [semaglutide]
- oral bioavailability: 0.4-1%
